Assay results taken from patent US20140227251A1 (AbbVie / Abbott, published 2014).
Residue numbers refer to the chain shown, from its start. In names and notes the source's numbering stands.

B1: D2E7 combination variant Y32K/SS-R30I (antibody, V domains shown)
VH: not shown
VL: DIQMTQSPSSLSASVGDRVTITCRASQSIINYLSWYQQKPGKAPKLLIYAASTLQSGVPSRFSGSGSGTDFTLTISSLQPEDVATYYCQRYNRAPYTFGQGTKVEIK
notes: VL-SS backbone = G28S and A34S in CDR-L1 (Kabat); Expressed and purified variant antibody; also called Y2K in CDR-H1 with G5S, R7I and A11S in CDR-L1
B2: D2E7 combination variant Y32K/SS-R30T (antibody, V domains shown)
VH: not shown
VL: B1 VL with I30T
notes: VL-SS backbone = G28S and A34S in CDR-L1 (Kabat); Expressed and purified variant antibody; also called Y2K in CDR-H1 with G5S, R7T and A11S in CDR-L1

Target: T1, Human TNF-α (R&D Systems) (human, UniProt P01375 77-233, labeled with Alexa Fluor 647 in the FACS assays)
T1 construct: also called Alexa Fluor 647-labeled TNF-α; TNF-α-AF647
Assay: surface plasmon resonance (Biacore)

T1 sequence (P01375 77-233 limits assumed): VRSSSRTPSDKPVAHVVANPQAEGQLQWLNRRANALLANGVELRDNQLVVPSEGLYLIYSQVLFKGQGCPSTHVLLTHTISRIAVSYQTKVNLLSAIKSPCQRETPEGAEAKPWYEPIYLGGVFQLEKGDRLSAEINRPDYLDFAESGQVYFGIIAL

Row | binding result | Binder
1 | binds | B1
2 | binds | B2
